Article PMC3026072

Tests used:
[1] = confocal GFP vs Bodipy-ceramide, MetaMorph; conditions: glycan lost; control: wild-type OCTN2
[2] = anti-GFP Western band intensity, CHO membranes; conditions: glycan lost; control: wild-type OCTN2
[3] = Michaelis-Menten kinetics after 16 h tunicamycin, CHO; conditions: glycan lost; control: untreated cells
[4] = carnitine 0.5–100 µM uptake, Michaelis-Menten fit, CHO; conditions: glycan lost; control: wild-type OCTN2

B1: OCTN2 carnitine transporter: N57/64/91Q (protein)
parent chain: MRDYDEVTAFLGEWGPFQRLIFFLLSASIIPNGFTGLSSVFLIATPEHRCRVPDAANLSSAWRNHTVPLRLRDGREVPHSCRRYRLATIANFSALGLEPGRDVDLGQLEQESCLDGWEFSQDVYLSTIVTEWNLVCEDDWKAPLTISLFFVGVLLGSFISGQLSDRFGRKNVLFVTMGMQTGFSFLQIFSKNFEMFVVLFVLVGMGQISNYVAAFVLGTEILGKSVRIIFSTLGVCIFYAFGYMVLPLFAYFIRDWRMLLVALTMPGVLCVALWWFIPESPRWLISQGRFEEAEVIIRKAAKANGIVVPSTIFDPSELQDLSSKKQQSHNILDLLRTWNIRMVTIMSIMLWMTISVGYFGLSLDTPNLHGDIFVNCFLSAMVEVPAYVLAWLLLQYLPRRYSMATALFLGGSVLLFMQLVPPDLYYLATVLVMVGKFGVTAAFSMVYVYTAELYPTVVRNMGVGVSSTASRLGSILSPYFVYLGAYDRFLPYILMGSLTILTAILTLFLPESFGTPLPDTIDQMLRVKGMKHRKTPSHTRMLKDGQERPTILKSTAF
With B1 the “localisation_or_trafficking, other: percent of transporters at plasma membrane” value [1] was “abolishes” and the expression_or_secretion [2] was “decreases”.

B2: OCTN2 carnitine transporter: tunicamycin (0.5 µg/ml) (protein)
parent chain: B1 parent chain
In the case of B2, the “other: kinetic parameters of carnitine transport” value [3] is reported as “no change”.

B3: OCTN2 carnitine transporter: N57/91Q (protein)
parent chain: B1 parent chain
For B3, the “localisation_or_trafficking, other: percent of transporters at plasma membrane” value [1] was “decreases”.

B4: OCTN2 carnitine transporter: N64/91Q (protein)
parent chain: B1 parent chain
In the case of B4, the “other: Vmax of carnitine transport” value [4] is reported as “decreases”, the “localisation_or_trafficking, other: percent of transporters at plasma membrane” value [1] is reported as “decreases” and the expression_or_secretion [2] is reported as “decreases”.

B5: OCTN2 carnitine transporter: N57Q/N64Q (protein)
parent chain: B1 parent chain
For B5, the expression_or_secretion [2] was “no change”.
